{"source": "paper PMC6220203", "about": "“Cellular signaling and gene expression profiles evoked by a bivalent macrocyclic peptide that serves as an artificial MET receptor agonist” (Scientific Reports, 2018)", "molecular_target": "MET receptor (endogenous, on EHMES-1 cells) (human (endogenous in EHMES-1)) (UniProt P08581)", "data": [{"substance": "MET receptor (endogenous, on EHMES-1 cells) (from UniProt P08581 25-1390)", "values": [{"measurement": "MET receptor Tyr1234/1235 phosphorylation (cell-based enzyme-linked immunosorbent assay) in EHMES-1 cells against the concentration of aMD5-PEG11; bell-shaped profile", "value": 120, "unit": "nM"}]}]}
